# Measured values reported in article doi:10.1101/2024.05.29.596450v1.
# Substrate: O=C(Cc1cccs1)N[C@@H]1C(=O)N2C(C(=O)O)=C(/C=C/c3ccc([N+](=O)[O-])cc3[N+](=O)[O-])CS[C@H]12
# Test: purified protein
# Details: nitrocefin 50-200 μM, phosphate buffer pH 7.4
protein,measurement,value
PBP2a (Staphylococcus aureus) (protein) YASKDKEINNTIDAIEDKNFKQVYKDSSYISKSDNGEVEMTERPIKIYNSLGVKDINIQDRKIKKVSKNKKRVDAQYKIKTNYGNIDRNVQFNFVKEDGMWKLDWDHSVIIPGMQKDQSIHIENLKSERGKILDRNNVELANTGTAYEIGIVPKNVSKKDYKAIAKELSISEDYIKQQMDQKWVQDDTFVPLKTVKKMDEYLSDFAKKFHLTTNETESRNYPLEKATSHLLGYVGPINSEELKQKEYKGYKDDAVIGKKGLEKLYDKKLQHEDGYRVTIVDDNSNTIAHTLIEKKKKDGKDIQLTIDAKVQKSIYNNMKNDYGSGTAIHPQTGELLALVSTPSYDVYPFMYGMSNEEYNKLTEDKKEPLLNKFQITTSPGSTQKILTAMIGLNNKTLDDKTSYKIDGKGWQKDKSWGGYNVTRYEVVNGNIDLKQAIESSDNIFFARVALELGSKKFEKGMKKLGVGEDIPSDYPFYNAQISNKNLDNEILLADSGYGQGEILINPVQILSIYSALENNGNINAPHLLKDTKNKVWKKNIISKENINLLTDGMQQVVNKTHKEDIYRSYANLIGKSGTAELKMKQGETGRQIGWFISYDKDNPNMMMAINVKDVQDKGMASYNAKISGKVYDELYENGNKKYDIDE,Km,29.28 µM
same,kcat,259.1 s⁻¹
